In assay [1] the target is papain (UniProt P00784). As to the kind of experiment: SPR, cystatin immobilised on NTA chip via His tag, papain in solution. (In SPR one partner is held on a chip, and binding of the other changes the refractive index at the surface.)
Assay [2] has as its target papain (UniProt P00784). As to the kind of experiment: SPR; text value differs from Table 3 (4.7 × 10^-9).
The target in assay [3] is papain (UniProt P00784). In words: cell-based or functional assay.

From patent US20160032278A1 come the findings set out here.

Usually Kd stands for the equilibrium constant for the complex coming apart. High values mean weaker binding, low ones tighter binding. Broadly, the koff is the first-order rate constant of dissociation. One may read the kon as the second-order rate constant of association.

Sequence of papain (P00784 134-345 limits assumed): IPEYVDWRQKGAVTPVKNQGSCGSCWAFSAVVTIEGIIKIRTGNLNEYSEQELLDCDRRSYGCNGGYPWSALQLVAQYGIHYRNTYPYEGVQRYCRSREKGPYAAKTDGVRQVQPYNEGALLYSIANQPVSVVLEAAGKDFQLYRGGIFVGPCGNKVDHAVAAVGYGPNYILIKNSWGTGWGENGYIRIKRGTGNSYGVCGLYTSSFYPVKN

Consider CPA (papaya cystatin, Carcia papaya), for which, in the assay with papain [1], the Ka was found to be 5e+07 M⁻¹, the dissociation constant (Kd) came out at 0.02 µM, the off-rate constant (koff) stood at 0.0052 s⁻¹ and the on-rate constant (kon) was 260000 M⁻¹ s⁻¹.

Turning to “CUN (satsuma orange cystatin, Citrus unshiu)”, in the assay with papain [1], the Ka was 7.3e+07 M⁻¹, the Kd was found to be 0.014 µM, the koff amounted to 0.0035 s⁻¹ and the association rate constant (kon) was found to be 260000 M⁻¹ s⁻¹.

In the assay with papain [1], “OSA-IΔD86 (modified oryzacystatin I lacking residue Asp86) (from UniProt P09229 39-140)” returned a Ka of 2.1e+08 M⁻¹, a Kd of 0.0047 µM, a koff of 0.0012 s⁻¹ and a kon of 260000 M⁻¹ s⁻¹. Moreover, the equilibrium dissociation constant (Kd) in the assay with papain [2] amounted to 0.047 µM. The same substance yielded an IC50, papain inhibition (substrate pGlu-Phe-Leu-p-nitroanilide) with papain [3] of 1.8e-07 M.
